The numbers were not newly measured in PMC2164963, which cites them from elsewhere.

In this data set the target is EBNA-1 (Epstein-Barr virus) (UniProt P03211).

EBNA-1 (from UniProt P03211): the Kd is 1 nM.
